The text below walks through data of publication PMC8759595.

One experiment addresses endogenous VAPB (COS-7 cells). Kind of experiment: co-immunoprecipitation (anti-FLAG) with quantified immunoblot. Conditions: COS-7 cell lysate; n = 5; parent: est. 1.0; read off a plot. For orientation: Immunoblotting shows a protein as a band on a membrane.
Turning to “FLAG-ACBD4 (from UniProt Q8NC06) S166E; S169E; S171E”, the ratio to parent came out at 4.4.
The same measure, in the same setting: then “FLAG-ACBD4 (from UniProt Q8NC06) S166A; S169A; S171A”, with 1.7.

For the next experiment, the target named is endogenous VAPB (COS-7 cells). The experiment can be described thus: co-immunoprecipitation (Myc-TRAP) with quantified immunoblot. Particulars: COS-7 cell lysate treated with λ-phosphatase before IP, relative to phosphatase-inhibitor sample; parent: est. 0.5; read off a plot.
As to “Myc-ACBD5 (from UniProt Q5T8D3-2) S259E; S261E; S263E”, the other: remaining VAPB binding (% of untreated) (% of untreated) was 22.

Still in this experiment, the particulars now being: COS-7 cell lysate treated with λ-phosphatase before IP, relative to phosphatase-inhibitor sample; parent: est. 4.5; read off a plot.
As to Myc-ACBD5 (from UniProt Q5T8D3-2) S263E, the other: remaining VAPB binding (% of untreated) (% of untreated) came to 8.
On to Myc-ACBD5 (from UniProt Q5T8D3-2) S259E, for which the other: remaining VAPB binding (% of untreated) (% of untreated) came out at 7.5.
The same measure, in the same setting: the figure for Myc-ACBD5 (from UniProt Q5T8D3-2) S261E is 21.

Staying with this experiment, now noted: COS-7 cell lysate; at least three independent IPs; parent: est. 1.0; read off a plot.
“Myc-ACBD5 (from UniProt Q5T8D3-2) T258A; S259A”: the ratio to parent is 0.53.
Myc-ACBD5 (from UniProt Q5T8D3-2) S261A: the ratio to parent stood at 0.35.
On the same count and under the same terms, the figure for Myc-ACBD5 (from UniProt Q5T8D3-2) S259A is 0.81.
On the same count and under the same terms, the figure for Myc-ACBD5 (from UniProt Q5T8D3-2) S263A is 0.42; for “Myc-ACBD5 (from UniProt Q5T8D3-2) S261A; S263A” it is 0.22; for “Myc-ACBD5 (from UniProt Q5T8D3-2) S259A; S261A” it is 0.3.
The same measure, in the same setting: the figure for “Myc-ACBD5 (from UniProt Q5T8D3-2) S259A; S261A; S263A” is 0.15.
